# Test results as given in US20130195866A1, “METHODS TO INHIBIT NEURODEGENERATION” (priority 2010, published 2013).
# Target: human amyloid β (Aβ) peptides secreted into the medium of Tg2576 neuron cultures (Aβ40, Aβ42 and their oligomers) (human) (UniProt P05067)
# Assay: cell-based or functional assay
# Chain of human amyloid β (Aβ) peptides secreted into the medium of Tg2576 neuron cultures (Aβ40, Aβ42 and their oligomers) (human) (P05067 672-713 limits assumed): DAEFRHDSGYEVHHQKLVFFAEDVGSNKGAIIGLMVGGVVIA
substance,measurement,value
"3D6 antibody, a high-titer monoclonal Aβ antibody",[Ca2+]i of wild-type neurons treated with TgCM depleted with 3D6 (Indo-1),98 nM
